Experiments:
P. aeruginosa P8 = assay: Mouse model of acute lung infection, P. aeruginosa P8; format: in vivo, Pseudomonas aeruginosa
Procedure: Study design. […] For all experiments 6 week-old, female, murine pathogen free C57/BL6 mice weighing 15-21 g were used (Charles Rivers Laboratories, UK). All mice received food and water ad libitum and were housed in groups during the experiments. Power calculations were used to predetermine sample size (n=6, for all treatment experiments). Mice were culled when required as determined by a scoring system or culled at the pre-determined 24 h time point. All mice, including outliers were included in the statistical analysis. Experiments were either carried out once only or repeated once (defined for each experiment).
(§1) Model of acute lung infection. Female C57/BL6 mice were inoculated intranasally with 25 μl of bacterial culture containing approximately 10^7 CFU of the selected P. aeruginosa strain^36. Antibiotic treatments were administered at either 6 h pre-infection or 1 h post-infection and were administered only once. Pyocins or tobramycin dissolved in PBS were administered via intranasal administration as described above. Two different end-points were used in these experiments. In order to determine a reduction in the bacterial load of the lungs compared to the untreated controls, all mice in the experiment were culled by carbon dioxide asphyxiation at the same time; 4-6 h post infection. To determine if mice could survive infection after pyocin or tobramycin treatment, mice were monitored closely, culled by carbon dioxide asphyxiation when required as determined by a scoring system or culled at the pre-determined 24 h time point. Uninfected mice, treated with pyocins, were used as controls in the first series of experiments in order to ensure no adverse effects from pyocin treatment. These controls were stopped in later experiments in order to reduce the number of animals used, once it was clear that the pyocins were not harmful. For CFU determination, lungs were removed aseptically and kept on ice in 750 μl of PBS until homogenised. Serial 10-fold dilutions of the homogenised lung were plated on Pseudomonas selective agar (20 g peptone, 1.5 g K2HPO4, 1.5 g MgSO4·7H2O, 10 ml glycerol, 15 g agar, 0.025 g Irgasan per litre) and incubated at 37° C. for 24 h and then room temperature for 24 h before the colonies were counted.

P. aeruginosa P17 = assay: Mouse model of acute lung infection, P. aeruginosa P17; format: in vivo, Pseudomonas aeruginosa
Procedure: as §1
Since strains of P. aeruginosa are phenotypically diverse, we tested the efficacy of the pyocins against three additional isolates: P. aeruginosa P17 and P. aeruginosa P5 (mucoid), both from cystic fibrosis patients and P. aeruginosa E2, an environmental isolate. Pyocin S2 was not active against P. aeruginosa P5 or P. aeruginosa E2 in vitro therefore was not used to treat these strains in vivo and similarly pyocin L1 was not used against P. aeruginosa P17. […] Lung homogenates from P. aeruginosa E2-infected AP41-treated mice contained high levels of viable bacteria, reduced only 10-fold relative to control mice (Table 1). […] Thus, pyocins show strong efficacy against diverse strains of P. aeruginosa with pyocin S5 treatment displaying the largest effect on reducing bacterial load.

P8AP41T = assay: Mouse model of acute lung infection, AP41 tolerant strain P8AP41T; format: in vivo, Pseudomonas aeruginosa; conditions: 3 mg ml^−1 1 h post-infection
Procedure: as §1
In order to determine if pyocin tolerance or resistance was acquired upon pyocin treatment in vivo, viable bacteria recovered from mice that survived infection to the 24 h end-point, in all experiments discussed in this work, were tested for pyocin susceptibility. From these experiments no pyocin resistant colonies were isolated. […] Importantly, sensitivity to pyocins S5 and L1 were unaffected in vitro in this pyocin AP41-tolerant strain (FIG. 3a) and this was also shown to be the case in vivo when mice were infected with P8AP41T.

P. aeruginosa P5 = assay: Pyocin activity in vitro against P. aeruginosa P5; format: cell-based, Pseudomonas aeruginosa
Procedure: (§2) Pyocin sensitivity assays: overlay spot plate method. Soft agar overlay spot plates were performed using the method of ^35. 150 μl of test strain culture at OD600 nm=0.6 was added to 6 ml of 0.8% soft agar and poured over an LB agar plate. 5 μl of bacteriocin, lung homogenate or blood at varying concentrations was spotted onto the plates and incubated for 24 h at 37° C.
(§3) Since strains of P. aeruginosa are phenotypically diverse, we tested the efficacy of the pyocins against three additional isolates: P. aeruginosa P17 and P. aeruginosa P5 (mucoid), both from cystic fibrosis patients and P. aeruginosa E2, an environmental isolate.

P. aeruginosa E2 = assay: Pyocin activity in vitro against P. aeruginosa E2; format: cell-based
Procedure: as §2, §3

P. aeruginosa = conditions: in vivo; cited from earlier work

B1: Pyocin S2: S-type pyocin, SEQ ID NO: 1; targeting domain binds FpvAI, effector has DNase activity (protein, listed as Pseudomonas aeruginosa)
chain: MAVNDYEPGSMVITHVQGGGRDIIQYIPARSSYGTPPFVPPGPSPYVGTGMQEYRKLRSTLDKSHSELKKNLKNETLKEVDELKSEAGLPGKAVSANDIRDEKSIVDALMDAKAKSLKAIEDRPANLYTASDFPQKSESMYQSQLLASRKFYGEFLDRHMSELAKAYSADIYKAQIAILKQTSQELENKARSLEAEAQRAAAEVEADYKARKANVEKKVQSELDQAGNALPQLTNPTPEQWLERATQLVTQAIANKKKLQTANNALIAKAPNALEKQKATYNADLLVDEIASLQARLDKLNAETARRKEIARQAAIRAANTYAMPANGSVVATAAGRGLIQVAQGAASLAQAISDAIAVLGRVLASAPSVMAVGFASLTYSSRTAEQWQDQTPDSVRYALGMDAAKLGLPPSVNLNAVAKASGTVDLPMRLTNEARGNTTTLSVVSTDGVSVPKAVPVRMAAYNATTGLYEVTVPSTTAEAPPLILTWTPASPPGNQNPSSTTPVVPKPVPVYEGATLTPVKATPETYPGVITLPEDLIIGFPADSGIKPIYVMFRDPRDVPGAATGKGQPVSGNWLGAASQGEGAPIPSQIADKLRGKTFKNWRDFREQFWIAVANDPELSKQFNPGSLAVMRDGGAPYVRESEQAGGRIKIEIHHKVRIADGGGVYNMGNLVAVTPKRHIEIHKGGK
With B1 the survival (P. aeruginosa P8; 300 μg ml^−1 and 30 μg ml^−1 (both concentrations), endpoint 24 h post-infection) was “survived until the endpoint of the experiment at 24 h post-infection”, the “reduction of bacterial load in lung” value (P. aeruginosa P8; 3 mg ml^−1 intranasal 1 h post-infection, culled 4.5 h post-infection (FIG. 1c)) was roughly 80 fold and the “reduction of bacterial numbers in lung” value (P. aeruginosa P8; C57/BL6 mice, 3 mg ml^−1 intranasal 6 h pre-infection, culled 4 h post-infection (FIG. 1a)) was “approximately 25 fold”. For the same molecule, the “Lowest active concentration tested” value (P. aeruginosa P8; lowest concentration tested with which the treated mice survived to 24 h) was 30 µg/mL, the Corresponding molarity (P. aeruginosa P8; molarity of lowest active concentration tested) was 358 nM and the survival / protection (P. aeruginosa P17; pyocin 3 mg ml^−1, endpoint 24 h, infected controls culled at 4 h) was “survived until the 24 h endpoint”. The “bacterial count in lung, P17” value (P. aeruginosa P17; pyocin 3 mg ml^−1, treated mice survived to 24 h, no treatment 4.4 × 10^5 CFU/lung) was “No colonies”, the “bacterial numbers in lung homogenates” value (P8AP41T; 24 h (FIG. 3b)) was “significantly reduced bacterial numbers” and the survival (P8AP41T; endpoint 24 h, PBS controls culled 6 h post-infection (FIG. 3b)) was “survived until the endpoint of the experiment at 24 h”. The activity in vitro (P. aeruginosa P5) was “not active”, the activity in vitro (P. aeruginosa E2) was “not active” and the “activity in an invertebrate model of infection” value (P. aeruginosa) was “active”.
